Test results taken from patent publication US20250382363A1 (NUMAB THERAPEUTICS, published 2025).

Columns and labels:
[1] = target: T1, human a-Mesothelin (Acro Biosystems; MSN_H5223) (human, UniProt Q13421 296-580, limits assumed); experiment: SPR, mesothelin immobilised, scFv analyte, 1:1 fit
T1 construct: Bought protein immobilised on the SPR chip; Printed as 'a-Mesothelin' but used as the antigen for the anti-MSLN scFvs; also called Human MSLN; MSLN
Experimental: The mutation variants were then injected at concentrations of 10 nM, 2 nM and 0.4 nM over the ligand-immobilized and reference spots. The wild type variants were used as a control, while an empty spot was used as reference.
After each cycle with analyte, the surface was regenerated with a 3M MgCl₂ solution, thereby allowing the next analyte cycle to have only free ligand available. Binding affinity KD was globally calculated by the Bruker SPR software based on the binding association (kₒₙ) and dissociation (Koff) rate, by fitting a 1:1 Langmuir model to the curves obtained by the cycles with the three different concentrations of the analyte.

[2] = target: pre-existing anti-drug antibodies (ADA) present in human sera; experiment: pre-existing ADA ELISA, scFv coated, human sera unspiked vs spiked

T1 sequence (Q13421 other isoform, or with tags, fused parts or gaps limits assumed): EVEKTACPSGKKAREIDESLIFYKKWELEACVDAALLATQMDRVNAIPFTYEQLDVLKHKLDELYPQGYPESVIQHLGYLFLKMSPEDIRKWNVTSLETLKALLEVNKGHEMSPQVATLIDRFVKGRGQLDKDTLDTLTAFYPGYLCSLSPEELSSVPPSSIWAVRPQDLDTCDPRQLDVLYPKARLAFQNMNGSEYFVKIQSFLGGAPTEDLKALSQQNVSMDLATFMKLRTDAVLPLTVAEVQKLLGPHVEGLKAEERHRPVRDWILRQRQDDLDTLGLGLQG

Binder | Kd [1] | n-fold to wt [1] | Mean No of serum samples >30% inhibition (30% CCP) with SCP (serum samples) [2] | No of serum samples >30% inhibition (30% CCP) without SCP (serum samples) [2]
PRO2994 (scFv 54-21-H03-sc01_(P48A)) (scFv, PRO1922 variant; VH substitution, AHo numbering; also called PRO1922 P48A) scFv: DIQMTQSPSSLSASVGDRVTITCQASESIYSSLAWYQQKPGKAPKLLIYLASTLASGVPSRFSGSGSGTDFTLTISSLQPEDFATYYCQSTDYTTSTHRNSFGTGTKVTVLGGGGGSGGGGSGGGGSGGGGSEVQLVESGGGLVQPGGSLRLSCAASGFSFSTTYYMCWVRQAAGKGLEWIGCTNTASSVRTYYATWAKGRFTISRDNSKNTVYLQMNSLRAEDTAVYYCARDMGFADYALNLWGQGTLVTVSS | 1.5 nM | 0.8 fold | 2 | 6
PRO3321 (scFv 54-21-H03-sc01_(L12R, T101S, L144A, T146Q)) (scFv, PRO1922 variant; VH substitutions, AHo numbering; also called PRO1922 L12R-T101S-L144A-T146Q) scFv: DIQMTQSPSSLSASVGDRVTITCQASESIYSSLAWYQQKPGKAPKLLIYLASTLASGVPSRFSGSGSGTDFTLTISSLQPEDFATYYCQSTDYTTSTHRNSFGTGTKVTVLGGGGGSGGGGSGGGGSGGGGSEVQLVESGGGRVQPGGSLRLSCAASGFSFSTTYYMCWVRQAPGKGLEWIGCTNTASSVRTYYATWAKGRFTISRDNSKNTVYLQMNSLRAEDSAVYYCARDMGFADYALNLWGQGTAVQVSS | 1.7 nM | 0.9 fold | 0 | 0
PRO3347 (scFv 54-21-H03-sc01_(T101S, T146S)) (scFv, PRO1922 variant; VH substitutions, AHo numbering; also called PRO1922 T101S-T146S) scFv: DIQMTQSPSSLSASVGDRVTITCQASESIYSSLAWYQQKPGKAPKLLIYLASTLASGVPSRFSGSGSGTDFTLTISSLQPEDFATYYCQSTDYTTSTHRNSFGTGTKVTVLGGGGGSGGGGSGGGGSGGGGSEVQLVESGGGLVQPGGSLRLSCAASGFSFSTTYYMCWVRQAPGKGLEWIGCTNTASSVRTYYATWAKGRFTISRDNSKNTVYLQMNSLRAEDSAVYYCARDMGFADYALNLWGQGTLVSVSS | 1.7 nM | 0.9 fold | 3 | 3
PRO3318 (scFv 54-21-H03-sc01_(L12A, T101R, L144A, T146Q)) (scFv, PRO1922 variant; VH substitutions, AHo numbering; also called PRO1922 L12A-T101R-L144A-T146Q) scFv: DIQMTQSPSSLSASVGDRVTITCQASESIYSSLAWYQQKPGKAPKLLIYLASTLASGVPSRFSGSGSGTDFTLTISSLQPEDFATYYCQSTDYTTSTHRNSFGTGTKVTVLGGGGGSGGGGSGGGGSGGGGSEVQLVESGGGAVQPGGSLRLSCAASGFSFSTTYYMCWVRQAPGKGLEWIGCTNTASSVRTYYATWAKGRFTISRDNSKNTVYLQMNSLRAEDRAVYYCARDMGFADYALNLWGQGTAVQVSS | 2.3 nM | 1.3 fold | 0 | 0
PRO3324 (scFv 54-21-H03-sc01_(T101R, T146Q)) (scFv, PRO1922 variant; VH substitutions, AHo numbering; also called PRO1922 T101R-T146Q) scFv: DIQMTQSPSSLSASVGDRVTITCQASESIYSSLAWYQQKPGKAPKLLIYLASTLASGVPSRFSGSGSGTDFTLTISSLQPEDFATYYCQSTDYTTSTHRNSFGTGTKVTVLGGGGGSGGGGSGGGGSGGGGSEVQLVESGGGLVQPGGSLRLSCAASGFSFSTTYYMCWVRQAPGKGLEWIGCTNTASSVRTYYATWAKGRFTISRDNSKNTVYLQMNSLRAEDRAVYYCARDMGFADYALNLWGQGTLVQVSS | 1.9 nM | 1.1 fold | 1 | 2
PRO3320 (scFv 54-21-H03-sc01_(L12A, T101S, L144K, T146Q)) (scFv, PRO1922 variant; VH substitutions, AHo numbering; also called PRO1922 L12A-T101S-L144K-T146Q) scFv: DIQMTQSPSSLSASVGDRVTITCQASESIYSSLAWYQQKPGKAPKLLIYLASTLASGVPSRFSGSGSGTDFTLTISSLQPEDFATYYCQSTDYTTSTHRNSFGTGTKVTVLGGGGGSGGGGSGGGGSGGGGSEVQLVESGGGAVQPGGSLRLSCAASGFSFSTTYYMCWVRQAPGKGLEWIGCTNTASSVRTYYATWAKGRFTISRDNSKNTVYLQMNSLRAEDSAVYYCARDMGFADYALNLWGQGTKVQVSS | 1.6 nM | 0.9 fold | 0 | 0
PRO3346 (scFv 54-21-H03-sc01_(T101S T146K)) (scFv, PRO1922 variant; VH substitutions, AHo numbering; also called PRO1922 T101S-T146K) scFv: DIQMTQSPSSLSASVGDRVTITCQASESIYSSLAWYQQKPGKAPKLLIYLASTLASGVPSRFSGSGSGTDFTLTISSLQPEDFATYYCQSTDYTTSTHRNSFGTGTKVTVLGGGGGSGGGGSGGGGSGGGGSEVQLVESGGGLVQPGGSLRLSCAASGFSFSTTYYMCWVRQAPGKGLEWIGCTNTASSVRTYYATWAKGRFTISRDNSKNTVYLQMNSLRAEDSAVYYCARDMGFADYALNLWGQGTLVKVSS | 1.5 nM | 0.8 fold | 0 | 0

Results, then the binder that gave them:

Kd [1] | n-fold to wt [1] | Mean No of serum samples >30% inhibition (30% CCP) with SCP (serum samples) [2] | No of serum samples >30% inhibition (30% CCP) without SCP (serum samples) [2] | Binder
1.8 nM | 1 fold | 0 | 0 | PRO3326 (scFv 54-21-H03-sc01_(T101Q, T146Q)) (scFv, PRO1922 variant; VH substitutions, AHo numbering; also called PRO1922 T101Q-T146Q) scFv: DIQMTQSPSSLSASVGDRVTITCQASESIYSSLAWYQQKPGKAPKLLIYLASTLASGVPSRFSGSGSGTDFTLTISSLQPEDFATYYCQSTDYTTSTHRNSFGTGTKVTVLGGGGGSGGGGSGGGGSGGGGSEVQLVESGGGLVQPGGSLRLSCAASGFSFSTTYYMCWVRQAPGKGLEWIGCTNTASSVRTYYATWAKGRFTISRDNSKNTVYLQMNSLRAEDQAVYYCARDMGFADYALNLWGQGTLVQVSS
1.7 nM | 0.9 fold | 0 | 0 | PRO3323 (scFv 54-21-H03-sc01_(L12A, T101Q, L144A, T146Q)) (scFv, PRO1922 variant; VH substitutions, AHo numbering; also called PRO1922 L12A-T101Q-L144A-T146Q) scFv: DIQMTQSPSSLSASVGDRVTITCQASESIYSSLAWYQQKPGKAPKLLIYLASTLASGVPSRFSGSGSGTDFTLTISSLQPEDFATYYCQSTDYTTSTHRNSFGTGTKVTVLGGGGGSGGGGSGGGGSGGGGSEVQLVESGGGAVQPGGSLRLSCAASGFSFSTTYYMCWVRQAPGKGLEWIGCTNTASSVRTYYATWAKGRFTISRDNSKNTVYLQMNSLRAEDQAVYYCARDMGFADYALNLWGQGTAVQVSS
2.5 nM | 1.4 fold | 0 | 0 | PRO3319 (scFv 54-21-H03-sc01_(L12A, T101S, L144A, T146R)) (scFv, PRO1922 variant; VH substitutions, AHo numbering; also called PRO1922 L12A-T101S-L144A-T146R) scFv: DIQMTQSPSSLSASVGDRVTITCQASESIYSSLAWYQQKPGKAPKLLIYLASTLASGVPSRFSGSGSGTDFTLTISSLQPEDFATYYCQSTDYTTSTHRNSFGTGTKVTVLGGGGGSGGGGSGGGGSGGGGSEVQLVESGGGAVQPGGSLRLSCAASGFSFSTTYYMCWVRQAPGKGLEWIGCTNTASSVRTYYATWAKGRFTISRDNSKNTVYLQMNSLRAEDSAVYYCARDMGFADYALNLWGQGTAVRVSS
1.5 nM | 0.8 fold | 0 | 0 | PRO3345 (scFv 54-21-H03-sc01_(T101N, T146Q)) (scFv, PRO1922 variant; VH substitutions, AHo numbering; also called PRO1922 T101N-T146Q) scFv: DIQMTQSPSSLSASVGDRVTITCQASESIYSSLAWYQQKPGKAPKLLIYLASTLASGVPSRFSGSGSGTDFTLTISSLQPEDFATYYCQSTDYTTSTHRNSFGTGTKVTVLGGGGGSGGGGSGGGGSGGGGSEVQLVESGGGLVQPGGSLRLSCAASGFSFSTTYYMCWVRQAPGKGLEWIGCTNTASSVRTYYATWAKGRFTISRDNSKNTVYLQMNSLRAEDNAVYYCARDMGFADYALNLWGQGTLVQVSS
1.6 nM | 0.9 fold | 0 | 0 | PRO3344 (scFv 54-21-H03-sc01_(T101K, T146Q)) (scFv, PRO1922 variant; VH substitutions, AHo numbering; also called PRO1922 T101K-T146Q) scFv: DIQMTQSPSSLSASVGDRVTITCQASESIYSSLAWYQQKPGKAPKLLIYLASTLASGVPSRFSGSGSGTDFTLTISSLQPEDFATYYCQSTDYTTSTHRNSFGTGTKVTVLGGGGGSGGGGSGGGGSGGGGSEVQLVESGGGLVQPGGSLRLSCAASGFSFSTTYYMCWVRQAPGKGLEWIGCTNTASSVRTYYATWAKGRFTISRDNSKNTVYLQMNSLRAEDKAVYYCARDMGFADYALNLWGQGTLVQVSS
1.8 nM | 1 fold | 1 | 4 | PRO3325 (scFv 54-21-H03-sc01_(T101S, T146R)) (scFv, PRO1922 variant; VH substitutions, AHo numbering; also called PRO1922 T101S-T146R) scFv: DIQMTQSPSSLSASVGDRVTITCQASESIYSSLAWYQQKPGKAPKLLIYLASTLASGVPSRFSGSGSGTDFTLTISSLQPEDFATYYCQSTDYTTSTHRNSFGTGTKVTVLGGGGGSGGGGSGGGGSGGGGSEVQLVESGGGLVQPGGSLRLSCAASGFSFSTTYYMCWVRQAPGKGLEWIGCTNTASSVRTYYATWAKGRFTISRDNSKNTVYLQMNSLRAEDSAVYYCARDMGFADYALNLWGQGTLVRVSS
2.1 nM | 1.2 fold | 0 | 0 | PRO3322 (scFv 54-21-H03-sc01_(L12R, T101R, L144A, T146Q)) (scFv, PRO1922 variant; VH substitutions, AHo numbering; also called PRO1922 L12R-T101R-L144A-T146Q) scFv: DIQMTQSPSSLSASVGDRVTITCQASESIYSSLAWYQQKPGKAPKLLIYLASTLASGVPSRFSGSGSGTDFTLTISSLQPEDFATYYCQSTDYTTSTHRNSFGTGTKVTVLGGGGGSGGGGSGGGGSGGGGSEVQLVESGGGRVQPGGSLRLSCAASGFSFSTTYYMCWVRQAPGKGLEWIGCTNTASSVRTYYATWAKGRFTISRDNSKNTVYLQMNSLRAEDRAVYYCARDMGFADYALNLWGQGTAVQVSS
1.6 nM | 0.9 fold | 1 | 2 | PRO3329 (scFv 54-21-H03-sc01_(T101Q)) (scFv, PRO1922 variant; VH substitution, AHo numbering; also called PRO1922 T101Q) scFv: DIQMTQSPSSLSASVGDRVTITCQASESIYSSLAWYQQKPGKAPKLLIYLASTLASGVPSRFSGSGSGTDFTLTISSLQPEDFATYYCQSTDYTTSTHRNSFGTGTKVTVLGGGGGSGGGGSGGGGSGGGGSEVQLVESGGGLVQPGGSLRLSCAASGFSFSTTYYMCWVRQAPGKGLEWIGCTNTASSVRTYYATWAKGRFTISRDNSKNTVYLQMNSLRAEDQAVYYCARDMGFADYALNLWGQGTLVTVSS
